Experimental data reported in article PMC9527319, “^99mTc-labeled iRGD for single-positron emission computed tomography imaging of triple-negative breast cancer” (Frontiers in Bioengineering and Biotechnology, 2022).
Like-named read-outs stand apart in the source and are kept apart here. Bridge positions count the residues as written; N and C are the ends. Peptide text beside a SMILES is read from it. * marks the point of attachment. HYNIC = NNc1ccc(C(=O)*)cn1

Assays:
[1] = In vitro stability of 99mTc-labeled peptides in PBS and cysteine solution (RCP by TLC); format: physicochemical; conditions: PBS (0.1 M, pH = 7.4) and cysteine solution (100-fold molar excess over the peptides), room temperature, within 6 h, RCP by TLC (silica gel 60 F254, 50% acetonitrile)
Procedure: (§1) HYNIC-iRGD, HYNIC-iRGE, and HYNIC-CG7C were labeled with ^99mTc according to previously published procedures in the literature ([Bohn et al., 2013]; [Xu et al., 2017]; [Gong et al., 2022]). In brief, a mixture of 50 μl HYNIC-modified peptide (1 mg/ml in water), 0.5 ml EDDA solution (20 mg/ml in 0.1 M NaOH), 0.5 ml tricine solution (40 mg/ml in 0.2 M PBS, pH = 6.0), 1 ml Na^99mTcO4 solution (50 mCi/ml), and 50 μl SnCl2 solution (1 mg/ml in 0.1 M HCl) were heated at 100°C for 15 min. After cooling to room temperature, the mixture was analyzed using instant thin-layer chromatography (TLC) and radio-high-performance liquid chromatography (radio-HPLC). The ^99mTc-labeled peptides were characterized using an Agilent 1260 HPLC system (Agilent Technologies, United States) equipped with a UV-vis detector (λ = 220 nm) and a radioactive flow detector (BioScan, United States). A SunFire C18 column (5 μm, 4.6 × 250 mm, Waters, Japan) was used at a flow rate of 1 ml/min with the following gradient method: 0.1% Trifluoroacetic acid in H2O and CH3CN (0–20 min, 10%–35% CH3CN) for iRGD and iRGE, and 0.1% trifluoroacetic acid in H2O and CH3CN (0–20 min, 25%–60% CH3CN) for CG7C. Their RCPs were determined by radio-HPLC and rapidly analyzed by TLC in a system consisting of silica gel 60 F254 TLC plates (Merck, Germany) and 50% acetonitrile as mobile phase. […]

[2] = In vitro stability of 99mTc-labeled peptides in FBS (RCP by TLC); format: in vitro ADME, bovine; conditions: FBS at 37°C, within 6 h, RCP by TLC (silica gel 60 F254, 50% acetonitrile)
Procedure: as §1

4T1 tumor-bearing mice [3] = conditions: for course of SPECT signal in tumor with time: i.v. tail vein, 0.5, 1, 2 and 4 h post-injection; for tumor accumulation (SPECT): i.v. tail vein, 0.5 h post-injection
Excerpt: Murine breast cancer cells 4T1 were purchased from Procell Life Science and Technology Co., Ltd. (Wuhan, China) and maintained in RPMI-1640 supplemented with 10% FBS. Four-week-old female BALB/c nude mice (18–20 g) and healthy ICR mice (20–22 g) were purchased from Shanghai Laboratory Animal Center of the Chinese Academy of Sciences (Shanghai, China). To establish breast cancer models, four-week-old female BALB/c nude mice were subcutaneously injected in their right-side flanks with 5 × 10^6 4T1 cells suspended in 100 μl of PBS. When the tumor diameter reached 0.8–1.2 cm, the mice were used for animal experiments. All animal experiments were repeated three times and performed according to the protocols established by the Ethics Committee of Shanghai General Hospital.
The 4T1 tumor-bearing mice were randomly divided into three groups (three mice per group). After anesthetization with pentobarbital sodium (40 mg/kg), 200 μl of ^99mTc-HYNIC-iRGD, ^99mTc-HYNIC-iRGE, or ^99mTc-HYNIC-CG7C ([^99mTc] = 10 mCi/ml) was injected via the tail vein. SPECT images were acquired at 0.5, 1, 2, and 4 h post-injection using a SPECT imaging system equipped with a Xeleris 2.0 workstation and low-energy general-purpose collimators (Infinia, Denver, CO, United States).

4T1 tumor-bearing mice [4] = assay: Biodistribution (gamma-counter, %ID/g); format: in vivo
Procedure: The radioactivity counts of all samples were measured using a γ-counter (CAPINTEC, United States) and expressed as counts per minute after correction for decay. The results are shown as the percentage of injection dose/gram (%ID/g) of wet tissue for each time point in each group.

[5] = Pharmacokinetics (blood radioactivity-time curve); format: in vivo; conditions: healthy ICR mice; for clear-phase half-life t1/2(β) / distribution phase half-life t1/2(α): i.v., blood, two-compartment model (DAS 2.0); for tissue uptake at 1 min / tissue uptake at 0.5 h / tissue uptake at 3 h: mouse, whole blood, iv, 20 uCi, total radioactivity, i.v. 20 μCi in 200 μl PBS, γ-counter, read-out: radioactivity level in blood; for tissue uptake at 1 min / tissue uptake at 0.5 h: mean ± SD; for tissue uptake at 0.5 h: 30 min; for tissue uptake at 3 h: 180 min
Procedure: The pharmacokinetic profiles of ^99mTc-HYNIC-iRGD and ^99mTc-HYNIC-iRGE were evaluated in healthy ICR mice. Each mouse was intravenously injected with ^99mTc-HYNIC-iRGD or ^99mTc-HYNIC-iRGE at a dose of 20 μCi in 200 μl PBS solution. Blood samples ([…]) from each mouse were immediately collected and weighed at designated times (1, 2, 5, 15, 30, 60, 120, and 180 min), and the radioactivity was measured using a γ-counter to calculate the %ID/g. Moreover, the pharmacokinetic data were analyzed by DAS 2.0 (Shanghai, China) using a two-compartment model to calculate the half-lives of ^99mTc-HYNIC-iRGD and ^99mTc-HYNIC-iRGE in blood.

[6] = i.v. 20 μCi, 4 h post-injection

SMILES	changes in RCPs (stability in vitro) [1]	changes in RCPs (stability in vitro) [2]	course of SPECT signal in tumor with time (4T1 tumor-bearing mice [3]; 4T1 tumor-bearing nude mice)	tumor accumulation (SPECT) (4T1 tumor-bearing mice [3]; 4T1 tumor-bearing nude mice)	radioactivity in bladder and kidneys (SPECT; clearance through the urinary system) (4T1 tumor-bearing mice [3]; 4T1 tumor-bearing nude mice, i.v., each time point 0.5–4 h)	tumor-to-muscle (T/M) ratio (4T1 tumor-bearing mice [4]; i.v. 20 μCi, 0.5, 1, 2 and 4 h post-injection)	tumor-to-kidney (T/K) ratio (4T1 tumor-bearing mice [4]; i.v. 20 μCi, 0.5–4 h post-injection)	tumor-to-blood (T/B) ratio (4T1 tumor-bearing mice [4]; [6])	tumor-to-lung (T/Lu) ratio (4T1 tumor-bearing mice [4]; [6])	clear-phase half-life t1/2(β) [5] [min]	distribution phase half-life t1/2(α) [5] [min]	tissue uptake at 1 min [5] [%ID/g]	tissue uptake at 0.5 h [5] [%ID/g]	tissue uptake at 3 h [5] [%ID/g]	radioactivity in bladder and kidneys (SPECT; clearance through the urinary system) (4T1 tumor-bearing mice [3]; mouse, in vivo, iv)
N=C(N)NCCC[C@@H]1NC(=O)[C@@H](NC(=O)c2ccc(NN)nc2)CSSC[C@@H](C(=O)O)NC(=O)[C@H](CC(=O)O)NC(=O)[C@@H]2CCCN2C(=O)CNC(=O)[C@H](CCCCN)NC(=O)[C@H](CC(=O)O)NC(=O)CNC1=O [^99mTc-HYNIC-iRGD, metal not drawn]	no obvious changes in RCPs	no obvious changes in RCPs	increase in tumor accumulation of radioactivity	distinct tumor accumulation	high radioactivity	higher in mice treated with ^99mTc-HYNIC-iRGD than in those treated with ^99mTc-HYNIC-iRGE at each time point	much higher than for ^99mTc-HYNIC-iRGE and ^99mTc-HYNIC-CG7C	1.8	1.9	12.54	1.43	14.3 ± 0.95	1.26 ± 0.11	~0.1	
N=C(N)NCCC[C@@H]1NC(=O)[C@@H](NC(=O)c2ccc(NN)nc2)CSSC[C@@H](C(=O)O)NC(=O)[C@H](CC(=O)O)NC(=O)[C@@H]2CCCN2C(=O)CNC(=O)[C@H](CCCCN)NC(=O)[C@H](CCC(=O)O)NC(=O)CNC1=O [^99mTc-HYNIC-iRGE, metal not drawn] ({HYNIC}-CRGEKGPDC-OH; disulfide 1-9 (inferred); N-terminus and C-terminus assumed)	no obvious changes in RCPs	no obvious changes in RCPs	gradually faded with time	distinct tumor accumulation						10.56	0.88	19.3 ± 2.52	1.06 ± 0.08	~0.1	high radioactivity
